Drawing on publication PMC7736850, “Hemistepsin A suppresses colorectal cancer growth through inhibiting pyruvate dehydrogenase kinase activity” (Scientific Reports, 2020), this text covers Kd for 3 compounds.

Test [1] concerns the target T1, pyruvate dehydrogenase kinase (PDK) 1 (Homo sapiens, UniProt Q15118).
T1 construct: gene PDK1
The test can be described thus: isothermal titration calorimetry (ITC). The format is binding. On the technique in general: ITC needs no label: the signal is the heat of the interaction.

In test [2] the target is Pyruvate dehydrogenase kinase 1 (PDK1) protein (UniProt Q15118). The test can be described thus: ITC; PDK1 protein with the lipoamide-binding domains of PDH-E2 (L1, L2), in the presence of hemistepsin A (HsA); conditions not told in the main text.
Pyruvate dehydrogenase kinase 1 (PDK1) protein, sequence (Q15118 29-436): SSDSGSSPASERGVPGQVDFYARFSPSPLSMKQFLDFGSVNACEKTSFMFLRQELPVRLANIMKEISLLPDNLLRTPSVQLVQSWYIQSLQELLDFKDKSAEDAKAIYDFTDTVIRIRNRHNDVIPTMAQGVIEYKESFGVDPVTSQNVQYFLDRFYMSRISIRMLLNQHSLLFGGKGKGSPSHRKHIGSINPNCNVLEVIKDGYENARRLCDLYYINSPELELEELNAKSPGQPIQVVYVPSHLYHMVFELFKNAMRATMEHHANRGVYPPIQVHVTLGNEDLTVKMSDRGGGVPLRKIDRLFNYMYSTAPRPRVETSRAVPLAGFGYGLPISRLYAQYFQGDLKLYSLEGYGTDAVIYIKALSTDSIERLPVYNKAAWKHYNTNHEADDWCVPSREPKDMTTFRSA
Test [3] has the same target. The test can be described thus: ITC; PDK1 protein with the lipoamide-binding domains of PDH-E2 (L1, L2), without HsA; conditions not told in the main text.

By Kd is commonly meant the constant that tells how readily two partners part at equilibrium.

T1 sequence (Q15118 29-436): as above

As to `C=C(CO)C(=O)OC1C2C(=C)C(=O)OC2CC(=C)C2CC(O)C(=C)C21` (centres unmarked) [HsA, Hemistepsin A], in test [1], the Kd worked out at 22 µM. On to “L1 lipoamide-binding domain of the PDH complex E2 subunit (PDH-E2) (domain or fragment)”, for which the Kd amounted to 43.1 µM in test [2] and 41.1 µM in test [3]. Consider “L2 lipoamide-binding domain of the PDH complex E2 subunit (PDH-E2) (domain or fragment)”, for which the equilibrium dissociation constant (Kd) in test [2] is 41 µM; in test [3] it was 30 µM.
